Key:
[1] = molecular target: T1, HA-HDM2 (human, recombinant, wild type) (human, UniProt Q00987 1-491); experiment: pull-down; 500 ng FLAG-MDM4 with 500 ng HA-HDM2 or HA-HDM2L468A in NP40 buffer (20 mM Tris-HCl pH 8.0, 150 mM NaCl, 0.5% NP40); anti-FLAG M2 beads, 1 hour at room temperature; eluted with 3xFLAG peptide; blot for HA; details: both partners purified
T1 construct: human MDM2 (HDM2); also called HA-HDM2 (WT); HA-MDM2 (human); source: insect cell expression, purified as described previously [13]; not shown: HA, N-terminal, kept
T1 sequence (Q00987 whole entry): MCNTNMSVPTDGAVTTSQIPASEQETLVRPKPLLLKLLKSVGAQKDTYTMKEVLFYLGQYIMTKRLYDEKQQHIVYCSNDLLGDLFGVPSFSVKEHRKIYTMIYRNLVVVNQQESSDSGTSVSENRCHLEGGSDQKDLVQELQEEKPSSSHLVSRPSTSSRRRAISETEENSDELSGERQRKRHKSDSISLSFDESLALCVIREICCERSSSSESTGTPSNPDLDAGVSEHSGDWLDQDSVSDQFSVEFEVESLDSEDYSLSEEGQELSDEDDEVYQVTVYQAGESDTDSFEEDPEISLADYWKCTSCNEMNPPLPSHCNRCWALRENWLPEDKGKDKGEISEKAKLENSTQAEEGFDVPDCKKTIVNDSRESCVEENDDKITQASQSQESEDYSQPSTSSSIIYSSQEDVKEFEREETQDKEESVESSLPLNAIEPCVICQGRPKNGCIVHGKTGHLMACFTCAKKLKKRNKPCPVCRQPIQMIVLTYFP

[2] = molecular target: T2, HA-HDM2L468A (human, recombinant) (human, UniProt Q00987 1-491, L468A); experiment: as above; details: both partners purified
T2 construct: human MDM2 (HDM2) with L468A; also called HA-HDM2LA; mutant HDM2 (HA-HDM2L468A); source: insect cell expression, purified as described previously [13]; not shown: HA, N-terminal, kept
T2 sequence (Q00987 whole entry L468A): as the sequence (Q00987 whole entry) above, with L468A counted along it

binding result [1]: binds
binding result [2]: binds
B1: human recombinant FLAG-MDM4 (natural protein, UniProt O15151 1-490, looked up)
chain: MTSFSTSAQCSTSDSACRISPGQINQVRPKLPLLKILHAAGAQGEMFTVKEVMHYLGQYIMVKQLYDQQEQHMVYCGGDLLGELLGRQSFSVKDPSPLYDMLRKNLVTLATATTDAAQTLALAQDHSMDIPSQDQLKQSAEESSTSRKRTTEDDIPTLPTSEHKCIHSREDEDLIENLAQDETSRLDLGFEEWDVAGLPWWFLGNLRSNYTPRSNGSTDLQTNQDVGTAIVSDTTDDLWFLNESVSEQLGVGIKVEAADTEQTSEEVGKVSDKKVIEVGKNDDLEDSKSLSDDTDVEVTSEDEWQCTECKKFNSPSKRYCFRCWALRKDWYSDCSKLTHSLSTSDITAIPEKENEGNDVPDCRRTISAPVVRPKDAYIKKENSKLFDPCNSVEFLDLAHSSESQETISSMGEQLDNLSEQRTDTENMEDCQNLLKPCSLCEKRPRDGNIIHGRTGHLVTCFHCARRLKKAGASCPICKKEIQLVIKVFIA
notes: human MDM4 (HDM4); also called FLAG-M4; HDM4; source: insect cell expression, purified as described previously [13]; not shown: FLAG, N-terminal, kept
